Laboratory results: the DeepSol protein solubility set

Assay: soluble on expression in E. coli; label from the status in PepcDB or PDB records

Sequence	soluble on expression in E. coli
MVSLRELRGGLMSNKYCQALVELRNKPAHELKEVGDQWRTPDNIFWGINTLFGPFVLDLFTDGDNAKCAAYYTAEDNALAHDWSERLAELKGAAFGNPPYPWLEHHHHHH	not soluble
RRNALELEVFAGQEKSELSMIEVARAILELRGRDHEMHFSDLVNEIQNYLGTSNSDIREALPLFYTELNFDGSFISLGDNKWGLRSWYGVDEIDEEIIALEENDDDEVAPKAKKKRVNAFMDGDSDAIDYNADDPEDEDAYEADPALSYDDENPDDEKNEVEAYDAEINEIAPDDLGEDVDLNEDDDEFSDDDAET	not soluble
MSDTVVASAAVQAPAKTVKSPKAAKTTKVPKAKKPVAHPPYINMVTAAINGLKERKGSSKIAILKYITKNYNVGDQIIKINARLRDTLNKGVVSKALVQSVGTGASGRFRVTEKKAAAAKKPVAKKAATGEKKAKKPVAQKAATGEKKAKKTTATKTKKTADKVKKVKSPKKIAKPTAKKVAKSPAKKSAPKKAAAAKPAKKAVAPKT	soluble
TPRGYTTWVNTIQTNGLLNEASQNLFGILSVDCTSEEMNAFLDVVPGQAGQKQILLDAIDKIADDWDNRHPLPNAPLVAPPQGPIPMTARFIRGLGVPRERQMEPAFDQFRQTYRQWIIEAMSEGIKVMIGKPKAQNIRQGAKEPYPEFVDRLLSQIKSEGHPQEISKFLTDTLTIQNANEECRNAMRHLRPEDTLEEKMYACRDIG	soluble
MGHHHHHHSHMDNAVDRHVFYISDGTAITAEVLGHAVMSQFPVTISSITLPFVENESRARAVKDQIDAIYHQTGVRPLVFYSIVLPEIRAIILQSEGFCQDIVQALVAPLQQEMKLDPTPIAHRTHGLNPNNLNKYDARIAAIDYTLAHDDGISLRNLDQAQVILLGVSRCGKTPTSLYLAMQFGIRAANYPFIADDMDNLVLPASLKPLQHKLFGLTIDPERLAAIREERRENSRYASLRQCRMEVAEVEALYRKNQIPWINSTNYSVEEIATKILDIMGLSRRMY	not soluble
MGSDKIHHHHHHMEFDQAKKIVVATIIDQQGLSDRLVGCKAIITSTGRLSYSIPLAWVRERLEVLIRESLYRGSFEVISLANPNDTRQKATLMIDPYLPPQELIILGGGHIAQPLAKIGKLLGYQVAVLDDRPEFVSKDRFPEADKTICCSFDTVENSFDLGPQSNVVIVTRGHQHDLLCLRQMLKYPLAYLGMIGSRRKVAIIRERLLEEGLAVKKLNSVYMPIGLDIGAQTPAEIAVSITAELIKVRRGGKAASIKNIDKKNNDNEAGVFNLGELPSTIDQEILQLTLQAAINHVPAALATVVSTKGSTPRKAGAHMLVWADGRSLGTVGGGQGEAKVRAEAFKIINTSQPILYRISMDAANAAMEGMICGGSMEVFIEPVNGFAQVSGGGGIL	not soluble
MGSDKIHHHHHHMKKLIAGVLVLTILGSCGNKKTNIDPFASITQEVDSIRHKADSIHQEELPEEPKPTEADESFDDFIYNFASDDALQRQRVKFPLPYYKGDEKTNIEERNWKHDDLFTKQHYYTLLFDKEEDMDLVGDTSLTSVQVEWIFVKTRMVKKYYFERIKGAWILEAINLRPVERNENEDFVEFFSHFAADSLFQSRRVQEPLAFVTSDPDDDFSILETSLDLNQWFAFKPALPTDRLSNINYGQRNDDNSPTKILALKGIGNGFSNILYFRRKAGEWQLYKFEDTSI	not soluble
MPCRGLHSIPAGPVEFPEIATVYVMCGEKLTVMIDAGVSNSIADFSFLDKLDYIVLTHLHIDHIGLLPELLQVYKAKVLVKSGFKKYLTSEDGLKKLNESAEKVLGDLYYVYGGLEKKLDQDKVIEVEGNEEFDLGGYRMRLIYTPGHARHHMSVLVDDFLFTGDSAGAYFNGVVIPTTPPVIDYKMYMESLKRQIELKPKVVGFAHGGLVSPKIMEEHLKQMLSKEEIQINVDIGGVAGEILRKQIEVNLRGLRESKKSI	soluble
MSLVAVRSAHINKAGEFDPEKWIASLGITSQKSCECLAETWAYCLQQTQGHPDASLLLWRGVEMVEILSTLSMDIDTLRAALLFPLADANVVSEDVLRESVGKSVVNLIHGVRDMAAIRQLKATHTDSVSSEQVDNVRRMLLAMVDDFRCVVIKLAERIAHLREVKDAPEDERVLAAKECTNIYAPLANRLGIGQLKWELEDYCFRYLHPTEYKRIAKLLHERRLDREHYIEEFVGHLRAEMKAEGVKAEVYGRPKHIYSIWRKMQKKNLAFDELFDVRAVRIVAERLQDCYAALGIVHTHYRHLPDEKDDYVANPKPNGYQSIHTVVLGPGGKTVEIQIRTKQMHEDAELGVAAHWKYKEGAAAGGARSGHEDRIAWLRKLIAWQEEMADSGEMLDEVRSQVFDDRVYVFTPKGDVVDLPAGSTPLDFAYHIHSDVGHRCIGAKIGGRIVPFTYQLQMGDQIEIITQKQPNPSRDWLNPNLGYVTTSRGRSKIHAWFRKQDRDKNILAGRQILDDELEHLGISLKEAEKHLLPRYNFNDVDELLAAIGGGDIRLNQMVNFLQSQFNKPSAEEQDAAALKQLQQKSYTPQNRSKDNGRVVVEGVGNLMHHIARCCQPIPGDEIVGFITQGRGISVHRADCEQLAELRSHAPERIVDAVWGESYSAGYSLVVRVVANDRSGLLRDITTILANEKVNVLGVASRSDTKQQLATIDMTIEIYNLQVLGRVLGKLNQVPDVIDARRLHGSEGHHHHHH	not soluble
MSRRSNRTINLPAPYLKRIWLDPSQVHDREAYPFCLPIFPDDFELSFDAAITIIVGENGTGKSTILEGIAALAGYDDAGGGKGYMPVDHSDAREKMGGQLSKALRASWLPKITNGWFFRAESFFSVARYLDKAARDAGQVGPDFLSHSHGEGFLRFFEERCQRQGIFIFDEPESALSPARQIEFLKLLRRMDDSRICQVIMATHSPMLMAYPNAKLLRLGKYGLEPVTVEETDHYRLMREFCDDPRGFVEATLAELEHHHHHH	soluble
MNPTTLADVDTVIINANILTLDRDCPHAQAIAFAAGRILALGTTQELSPLAGRAATVVDARGSTLLPGFIDSHSHLMFGGVVAQALDLTEAACLSDLLDMVRSRAQSTPEGEWIRGYGVAAGRLKEKRYPTRQELDQVSGGRPVWLAEDSFHASLVNSKAFRMLEIPLSTPGVELAADGSPTGAFLNDAANVPARQRVFGFISDDEARQMLQHVTQLGATRGVTTVHAFEGSRMSADRDIELLMRFRHELPIHVVPYYETFDVERAMQLGVSGVGGCGRNCLDGMPNIQTAAMVDPYCCSEERGSLFQESIKLHNFVIAAFERGMQVGMHAMGDAAIEQLLATYERAIEETGRTDLRPRIEHFHVPSRDHVRRAADLGVGLAVQPIFTHLWGGRDGIFFERLGERRYKRIDTYREILDSGAIASCGADLPVHPADPLRWIQLLVDNQIDRDQSVSMTEAIRMCTYNGAWLGFQESETGTLAVSKAADAVMLGRDPHQCMPHEIAAIPILKTLGGKLVFESSRPLEHHHHHH	not soluble
MEVFLLKLDSKNCPNKRLKTLEEVPENTAITVGNFDGVHLGHRYLIENLKKKAKSENLKTLVLTFCPHPLKVLAPQLLPCELTDINEKIEIFRELGVDYLCFIRFDKEFAKIRAREFLEKIIYEKLKCRYLLVGYDWRYGYRREGEIELAKEVGSELGFEVEEAKPFKIKGHIVSSTLIRRLLREGRVEEVREYLGHNYWVKRKVVKGDQRGSKIGFPTANLQNTENLCLKEGVYAVKVEDKYLGVANYGYRPTFGKKKRVLEVHILDFEGNLRGKRIKVEFLKFIREEKKFSSVEELIQQIKKDVEAVKGLSKLEHHHHHH	soluble
MSIRAEEISALIKQQIENYQSEIEVSDVGTVIQVGDGIARAHGLDNVMAGELVEFSNGVMGLAQNLEENNVGIIILGPYTEIREGDEVRRTGRIMQVPVGKELIGRVVNPLGQPVDGLGPINTTNTRPIESPAPGVMDRKSVHEPLQTGIKAIDALVPIGRGQRELIIGDRQTGKTAVALDTIINQKDEDMICIYVAIGQKESTVRNVVETLRKHGALEYTIVVTASASQPAPLLYLAPYAGVTMGEEFMYNGKHVLVVYDDLSKQAAAYRELSLLLRRPPGREAYPGDVFYLHSRLLERAAKLSDAKGGGSLTALPFIETQAGDVSAYIPTNVISITDGQIFLQSDLFFSGVRPAIDAGTSVSRVGGSAQIKAMSKVSGTLRLDLASYRELEAFAQFGSDLDKATQAKLNRGARTVEVLKQGLHKPLRVEKQVIILYALTRGFLDDIPVVDITRFEEEFHAWLDSNATDLLEEIRTTKKLADDDKFAAAINGFKKVFVASE	not soluble
MGDGVLELVVRGMTCASCVHKIESSLTKHRGILYCSVALATNKAHIKYDPEIIGPRDIIHTIESLGFEASLVKIE	soluble
MSLESSDVPRELIESIKDVIGRKIKISVKKKVKLEVKGDKVENKVLVLTSCRAFLVTARIPTKLELTFSYLEIHGVVCSKSAQMIVETEKCSISMKMASPEDVSEVLAHIGTCLRKIFPGLSPVRIMKKVSMEPSERLASLQALWDSQTVAEQGPCGGFSQMYACVCDWLGFSYREEVQWDVDTIYLTQDTRELNLQDFSHLDHRDLIPIIAALEYNQWFTKLSSKDLKLSTDVCEQILRVVSRSNRLEELVLENAGLRTDFAQKLASALAHNPNSGLHTINLAGNPLEDRGVSSLSIQFAKLPKGLKHLNLSKTSLSPKGVNSLSQSLSANPLTASTLVHLDLSGNVLRGDDLSHMYNFLAQPNAIVHLDLSNTECSLDMVCGALLRGCLQYLAVLNLSRTVFSHRKGKEVPPSFKQFFSSSLALMHINLSGTKLSPEPLKALLLGLACNHNLKGVSLDLSNCELRSGGAQVLEGCIAEIHNITSLDISDNGLESDLSTLIVWLSKNRSIQHLALGKNFNNMKSKNLTPVLDNLVQMIQDEESPLQSLSLADSKLKTEVTIIINALGSNTSLTKVDISGNGMGDMGAKMLAKALQINTKLRTVIWDKNNITAQGFQDIAVAMEKNYTLRFMPIPMYDASQALKTNPEKTEDALQKIENYLLRNHETRKEGHHHHHH	soluble
MLKDEYGRVVTNLRIAVTKKCNLRCFYCHKEGESNPGEEISAERIVEIARAFKELGVRKLKITGGEPLLRKDLPDIILNLPEFEEISMTTNGILLEKYAEELRECGLSRVNVSLDTLDAEKYRWITGGGEVQKVVNGIEKACEVGLTPVKINMLVLGGVNDNEVDELLEFTNSFNRGNTKAILQVIELVPFPGFEKYFFDISTIEEKYARMATQRRVRAMHRRTQYFTPKGVIEFVKPMDNTAFCMHCNRMRVTSDGKLKPCLLRNETITIDGKHGEELARAIIETVRKREPYFKGLEHHHHHH	soluble
GAADMPFRWSFMADGKSLIAAQPDDARVIADTEALAGWYGGMTSLAPKQIKLFADGAIYSQLMQVRDPFLDGHKGEWMMDLDQFQRAFRVYWDAGYQLHVHVNGDAGLDRVLDTLETNLRRTPRDDHRTTIVHFAVSGADQVLRIRDLGAIVSANPYYVAALADNYGEVGLGPDRADNMVRLGDVEAAGISWSLHSDMPMAPCDPLFLMWCAVNRVTSSGRVAGPAQRVSAETALRGVTINAAYSLKLEHEIGSIEPGKRANLTILGDNPLTVDPEKIRDIAVIGTVMEGRDFP	not soluble
MAEHRGGSGNFAENREKASEAGRKGGQHSGGNFKNDPQRASEAGKKGGQNSHGGRKSDNS	not soluble
MSEYLAAADYLPHSAPMVLVDEVIHVDDEHAHCRVAVSREGILAPFLNAQGHLPAWFGIEIIAQTIGVWSGWHGRQSLGLQEKPRPGMLLGGRGYHCQQAIFPAGSLLDVTVMLVMRDEKIGSFEGEIAIDGEKYASGRLNTYQPDDRELNILLEQGKPL	not soluble
MAHHHHHHMAANCIFCKIIKGDIPCAKVAETSKALAFMDINPLSRGHMLVIPKEHASCLHELGMEDAADVGVLLAKASRAVAGPDGSMQYNVLQNNGSLAHQEVPHVHFHIIPKTDEKTGLKIGWDTVKVASDELAEDAKRYSEAIAKI	soluble
